Data set [1] concerns the target T1, Zscan4(ZnF) (Mus musculus, UniProt Q80VJ6 369-506).
T1 sequence: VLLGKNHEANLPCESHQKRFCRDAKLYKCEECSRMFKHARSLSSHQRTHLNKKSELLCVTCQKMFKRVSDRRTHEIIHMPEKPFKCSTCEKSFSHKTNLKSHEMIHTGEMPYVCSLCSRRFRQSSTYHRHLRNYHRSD
Put plainly: EMSA.

Data set [2] has as its target T1, Zscan4(ZnF). Put plainly: EMSA. The source holds these as a separate data set.

Binding result and Kd data for 2 molecules are collected here from paper PMC7083622.

B1: (GC)n oligo (dsDNA)
DNA 1: TCGCGCGTCGCGCGTCGCGCGC
DNA 2: GCGCGCGACGCGCGACGCGCGA
For B1, the binding result with Zscan4(ZnF) [1] is on record as “no binding”.

B2: (TG)n oligo (dsDNA)
DNA 1: TGTGTGCATCTGTGTGCATCAT
DNA 2: ATGATGCACACAGATGCACACA
What is called Kd is a measure of binding affinity in units of concentration. As to B2, in the data set with Zscan4(ZnF) [2], the Kd is ~500 µM.
